Among the data in PMC9017566 are stoichiometry N values, retold here.

In this assay the target is hexon protein of recombinant chimpanzee adenovirus C68 (AdC68), free hexon trimer (AEX-HPLC "impurity" peak) (chimpanzee adenovirus C68). Briefly: native MS; native SEC-HPLC/MS of the AEX-HPLC "impurity" fraction; BEH SEC 200Å column, isocratic 40 mM ammonium formate, 25°C; Orbitrap EMR, gentle source parameters to keep non-covalent complexes assembled.

“hexon protein of recombinant chimpanzee adenovirus C68 (AdC68), free hexon trimer (AEX-HPLC "impurity" peak) (natural protein)”: the stoichiometry N worked out at 3.

What is called stoichiometry N is the number of molecules, sites or subunits per partner or assembly.
